In patent US20070167369A1, “Novel use of isolated polypeptide comprising four FAS-1 domains, EM1 domain and RGD motif” (KYUNGPOOK NATIONAL UNIVERSITY INDUSTRY-ACADEMIC COOPERATION …, priority 2004, published 2007):

B1: fas-1 domain: recombinant protein containing the fourth fas-1 domain of human βig-h3 (SEQ ID NO: 64) (protein, listed as Homo sapiens)
chain: MGTVMDVLKGDNRFSMLVAAIQSAGLTETLNREGVYTVFAPTNEAFRALPPRERSRLLGDAKELANILKYHIGDEILVSGGIGALVRLKSLQGDKLEVSLKNNVVSVNKEPVAEPDIMATNGVVHVITNVL
B2: truncated βig-h3: recombinant human βig-h3 with EMI domain, all four fas-1 domains and RGD motif; residues 68-653 of SEQ ID NO: 1 (SEQ ID NO: 66) (protein, listed as Homo sapiens)
chain: WYQRKICGKSTVISYECCPGYEKVPGEKGCPAALPLSNLYETLGVVGSTTTQLYTDRTEKLRPEMEGPGSFTIFAPSNEAWASLPAEVLDSLVSNVNIELLNALRYHMVGRRVLTDELKHGMTLTSMYQNSNIQIHHYPNGIVTVNCARLLKADHHATNGVVHLIDKVISTITNNIQQIIEIEDTFETLRAAVAASGLNTMLEGNGQYTLLAPTNEAFEKIPSETLNRILGDPEALRDLLNNHILKSAMCAEAIVAGLSVETLEGTTLEVGCSGDMLTINGKAIISNKDILATNGVIHYIDELLIPDSAKTLFELAAESDVSTAIDLFRQAGLGNHLSGSERLTLLAPLNSVFKDGTPPIDAHTRNLLRNHIIKDQLASKYLYHGQTLETLGGKKLRVFVYRNSLCIENSCIAAHDKRGRYGTLFTMDRVLTPPMGTVMDVLKGDNRFSMLVAAIQSAGLTETLNREGVYTVFAPTNEAFRALPPRERSRLLGDAKELANILKYHIGDEILVSGGIGALVRLKSLQGDKLEVSLKNNVVSVNKEPVAEPDIMATNGVVHVITNVLQPPANRPQERGDELADSALEI

Assays:
[1] = system: blood vessels in Matrigel plugs; assay: In vivo Matrigel plug assay (Example 9-2); parameters: species or system C57/BL6 mice
Protocol: An in vivo Matrigel plug assay was performed according to the method described by Maeshima, Y. et al., J. Biol. Chem., 275:23745-23750, 2000. 5-6 week old male C57/BL6 mice purchased from Hyochang scientific company, Korea, were used.
First, Matrigel (BD Biosciences, MA) was mixed with 20 units/ml heparin, 150 ng/ml bFGF (basic fibroblast growth factor, R&D system, International, Inc), and 5 μM or 10 μM of the fas-1 domain (pig-h3 D-IV). As a control was treated with PBS. The Matrigel mixture was injected subcutaneously to the C57/BL6 mice. After 7 days, the mice were sacrificed, and the Matrigel plugs were removed and fixed in 4% paraformaldehyde. The Matrigel plugs were embedded in paraffin, sectioned and stained with H&E. Their sections were examined by light microscope, the number of blood vessels from 4-6 HPF (high power fields; x200) was counted and averaged. Each group consisted of 3 or 4 Matrigel plugs.

[2] = system: FAK-Raf-ERK/AKT signal transduction pathway; assay: Western blot of phosphorylation of FAK-Raf-ERK/AKT pathway enzymes in HUVECs (Example 12); format: cell-based, human; conditions: 20 μM
Protocol: To examine the inhibitory mechanism of the fas-1 domain against endothelial cell proliferation and migration, the amount and activity of enzymes related to a FAK-Raf-ERK/AKT signal transduction pathway that is a typical signal transduction pathway in cells was determined by Western blot analysis on HUVECs treated with the fas-1 domain. Since the signal transduction-related proteins undergo phosphorylation during their activation process, the amount of phosphorylated proteins can be measured to predict their activity.
HUVECs were spread onto a 100-mm plate with 10% FBS-containing M199 medium, and incubated in an incubator at 37° C. for 12 hours. Following this, the culture medium was replaced with fresh medium containing 0.1% FBS and then further incubated for 24 hours. After removing the medium, the cells were washed one time with PBS buffer. The cells were detached from the plate by treatment with Trypsin-EDTA solution. The cells were suspended in 10% FBS-containing medium. Fas-1 protein was added to the cell suspension at final concentration of 20 μM. A control was added with PBS buffer. Thereafter, 3 ml of the cell mixture was taken and spread onto a plate coated with collagen. After 30 minutes, 60 minutes and 90 minutes, respectively, the medium was removed from the plate, and the cells were washed one time with PBS buffer. The cells were added with 200 μl of cell lysis buffer and left to stand on ice. The cell lysate was centrifuged at 12,000 rpm for 10 minutes at 4° C., and the supernatant containing a soluble protein was collected. Next, to quantify the concentration of the protein, a Bradford assay (BioRad, Hercules, Calif.) was performed using BSA as the standard protein. 30 μg of each of the sample proteins was electrophoresed on 10% SDS-polyacrylamide gel. The protein on the gel was transferred onto a nitrocellulose membrane, using electrophoresis. The protein transferred to the membrane was reacted with 5% skimmed milk for one hour to block nonspecific protein binding. Following this, it was reacted with the following various antibodies to signal transduction proteins: FAK (BD Science, Franklin Lakes, N.J., USA), pFAK (phosphorylated FAK; Santa Cruz Co., CA, USA), ERK (Sanca Cruz Co., CA, USA), pERK (phosphorylated ERK; Santa Cruz Co., CA, USA), AKT (Cell Signaling Technology Co., Beverly, Mass.), pAKT (phosphorylated AKT; Cell Signaling Technology Co., Beverly, Mass.), Raf1 (Santa Cruz Co., CA, USA) and pRaf1 (phosphorylated Raf1, Santa Cruz Co., CA, USA). The antibodies had been diluted in TBST (50 mM Tris-HCl, pH 7.6, 150 mM NaCl, 0.1% Tween 20) before use. The binding reaction with the antibodies was performed for at least 12 hours in a refrigeration condition. After completion of the reaction, the membrane was washed three times with TBST solution. Thereafter, the membrane was added with HRP-conjugated secondary antibodies (HRP-conjugated-anti-mouse IgG and HRP-conjugated-anti-rabbit IgG; Santa Cruz Co., CA, USA), and a binding reaction with the secondary antibodies was performed at room temperature for one hour. Next, the membrane was washed three times, and then added with 1 ml of ECL as chemiluminescent solution, so that sites where antigen-antibody reaction occurred were visualized by fluorescence. The membrane was exposed to an X-ray film.

HUVECs = assay: Binding of biotin-βig-h3 to HUVECs, Western immuno-blotting (Example 3-4); parameters: species or system human; conditions: biotinylated βig-h3
Protocol: To confirm that HUVECs adhesion that is mediated by βig-h3 depends on αvβ3 integrin, the present inventors tested the binding affinity of βig-h3 in the presence of an antibody that specifically blocks the function of the integrin. This binding assay was performed according to the method described by Maile, L. A., et al., J. Biol. Chem., […].
First, HUVECs were suspended in medium at a density of 1×10^5 cells/ml. 1 ml of the cell suspension was preincubated with anti-[…] antibody (LM609) or anti-αvβ5 antibody (P1F6) at 37° C. for 30 minutes. Thereafter, the preincubated cells were incubated with biotinylated βig-h3 (hereinafter, referred to as “biotin-βig-h3”) in a serum-free medium containing 0.1% BSA at 4° C. for 5 hours. The biotin-βig-h3 was added at concentrations of […], respectively. Then, the cells were washed three times with PBS buffer (pH 7.4), and dissolved at 4° C. in ice-cold buffer A (10 mM Tris-Cl, pH 7.4, 150 mM NaCl, 1% Nonidet P-40, 1% sodium deoxycholate, 0.5% SDS, 0.02% sodium azide, 1 mM EDTA, 1 mM phenylmethylsulfonyl fluoride). The cell lysates were clarified by centrifugation at 13,000 rpm for 30 minutes at 4° C. Equal amounts of protein were then separated by SDS-PAGE, 8% gel. The amount of biotin-βig-h3 was determined by Western immuno-blotting. […]

[3] = collagen-coated plate, 30, 60, 90 minutes

Molecule | in vivo angiogenesis inhibitory effect compared with YH motif-containing peptide fragment of 18 amino acids ([1]; 5 μM fas-1 domain vs 500 μM YH peptide) | number of blood vessels in Matrigel plug ([1]; 5 μM in Matrigel, subcutaneous, 7 days) | angiogenesis in Matrigel plug ([1]; 10 μM in Matrigel, subcutaneous, 7 days) | absolute amounts of FAK, Raf1, ERK and AKT enzymes in the cells vs control [2] | phosphorylation of AKT [2, 3] | phosphorylation of ERK [2, 3] | phosphorylation of FAK [2, 3] | phosphorylation of Raf1 [2, 3] | binding to HUVECs surface (HUVECs)
B1 | significantly higher | significantly smaller than that in the control | perfectly inhibited | not significantly different | greatly reduced as compared to that of the control | no increase in phosphorylation until 90 minutes | reduced as compared to the control | greatly reduced as compared to that of the control | 
B2 |  |  |  |  |  |  |  |  | bound to HUVECs surface in a dose-dependent manner
